In US5985822A, “Inhibition of glial cell proliferation with N-CAM homophilic peptides” (The Scripps Research Institute, priority 1995, dated 1999):

Columns and labels:
[1] = test system: tyrosine phosphorylated proteins (60-70 kDa and approximately 120 kDa); assay: Anti-phosphotyrosine immunoprecipitation and immunoblot of bFGF-stimulated astrocytes; format: cell-based, rat; conditions: N-CAM 2 μg/ml 30 minutes, then bFGF 100 ng/ml 10 minutes
Method: Astrocyte cells were seeded at a density of 7×10^4 /cm^2 in a 100 mm tissue culture dish in Dulbecco's modified essential medium (DMEM) containing 10% fetal calf serum and gentamycin (5 μg/ml) at 37 degrees C with 7% CO2. After overnight culture, the medium was replaced with serum-free medium and the cells are cultured for an additional 48 hr. The serum-starved cells were treated for 30 minutes in the presence of N-CAM (2 μg/ml) or buffer alone and then stimulated for 10 minutes with bFGF (100 ng/ml) to stimulate tyrosine phosphorylation through the FGF receptor. […]
Immunoblotting was performed by incubation with the indicated antibodies followed by ^125 I-labeled protein A; the resulting autoradiogram was exposed for 14 hr on XAR film at -70° C. or scanned on a Molecular Dynamics PhosphorImager (Sunnyvale, Calif.). The amount of reactivity with antibodies to phosphotyrosine relative to the amount of reactivity with antibodies to each specific protein can be calculated from imaging these gel blots, in extracts from N-CAM treated cells vs. non treated cells. This determines whether the FGF receptor or other proteins analyzed in this same paradigm are changed in their levels of tyrosine phosphorylation upon N-CAM treatment.

[2] = test system: C6 glioma cells; assay: Proliferation of C6 glioma cells in SFM at low cell densities; format: cell-based; conditions: externally added N-CAM

B1: N-CAM: neural cell adhesion molecule purified from early postnatal rat brains by affinity chromatography, mainly polysialylated embryonic form (protein, UniProt P13596 20-858, looked up)
Neural cell adhesion molecule …: LQVDIVPSQGEISVGESKFFLCQVAGDAKDKDISWFSPNGEKLSPNQQRISVVWNDDDSSTLTIYNANIDDAGIYKCVVTAEDGTQSEATVNVKIFQKLMFKNAPTPQEFKEGEDAVIVCDVVSSLPPTIIWKHKGRDVILKKDVRFIVLSNNYLQIRGIKKTDEGTYRCEGRILARGEINFKDIQVIVNVPPTVQARQSIVNATANLGQSVTLVCDADGFPEPTMSWTKDGEPIENEEEDDEKHIFSDDSSELTIRNVDKNDEAEYVCIAENKAGEQDASIHLKVFAKPKITYVENQTAMELEEQVTLTCEASGDPIPSITWRTSTRNISSEEKASWTRPEKQETLDGHMVVRSHARVSSLTLKSIQYTDAGEYICTASNTIGQDSQSMYLEVQYAPKLQGPVAVYTWEGNQVNITCEVFAYPSATISWFRDGQLLPSSNYSNIKIYNTPSASYLEVTPDSENDFGNYNCTAVNRIGQESLEFILVQADTPSSPSIDRVEPYSSTAQVQFDEPEATGGVPILKYKAEWKSLGEEAWHSKWYDAKEANMEGIVTIMGLKPETRYAVRLAALNGKGLGEISAATEFKTQPVREPSAPKLEGQMGEDGNSIKVNLIKQDDGGSPIRHYLVKYRALASEWKPEIRLPSGSDHVMLKSLDWNAEYEVYVVAENQQGKSKAAHFVFRTSAQPTAIPANGSPTAGLSTGAIVGILIVIFVLLLVVMDITCYFLNKCGLLMCIAVNLCGKAGPGAKGKDMEEGKAAFSKDESKEPIVEVRTEEERTPNHDGGKHTEPNETTPLTEPEKGPVETKSEPQESEAKPAPTEVKTVPNEATQTKENESKA
modifications: polysialylated embryonic form
[1]
  tyrosine phosphorylation of a 60-70 kDa protein and a protein at approximately 120 kDa: diminished tyrosine phosphorylation
[2]
  rate of proliferation of C6 glioma cells: decrease their rate of proliferation
